{"source": "the nanobody polyreactivity screen of Harvey et al. (2022)", "data": [{"experiment": "yeast display, Sf9 membrane polyspecificity reagent, FACS + sequencing; frameworks hold sequencing errors", "method_in_brief": "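Genes from sorted yeast were amplified by colony PCR, read by MiSeq 2 × 250 sequencing and filtered on CDR length. These cells carried a synthetic nanobody library in Saccharomyces cerevisiae BJ5465 and were sorted by FACS into low and high (top ~1%) gates on anti-HA and streptavidin fluorescence. Polyreactivity is labelled according to the gate of origin.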", "values": [{"sequence": "QDQLVDSGGGLVQAGGSLRLSCAASGRISGYYAMGWYRQAPGKERELVASITYRGGSTYYADSVKGRFTISRDNAKNTVYLQINSLKPEDTAVYSCNFRYRPNRGSIGQPNSGKNWYDYWGLGTQVTVSS", "polyreactivity (PSR sort gate)": "high polyreactivity"}, {"sequence": "QVQLVESGGGLVQAGGSLRLSCAASGRIFGYNAMGWYRQAPGKERELVAAINSDGSKNYADSVKGRFTISRDNAKNTVYLQINSLNPEDTAVYYCAARWISVWSEGAEHDYWGQGTQVTVSS", "polyreactivity (PSR sort gate)": "low polyreactivity"}, {"sequence": "QVQLVESGGGLVQAGGSLRLSCAASGSTFGHYAMGWYRQAPGKERELVAGITDTDNHELRRLCEGRFTISRDNAKNTVYLQMTSLKPEDTAVYYCNADDTYYPLGGITGYDYWGQGTQVTVSS", "polyreactivity (PSR sort gate)": "low polyreactivity"}, {"sequence": "QVQLVESGGGLVQAGGSLRLRCAASGSIFKTYAMGWYRQAPRKERELVAAITTSGGRTYYADSVKGRFTISRDNAKYTVYLQMNSLKPEDTAVYYCNADLFPGYVSYPEYDYWGQGTQVTVSS", "polyreactivity (PSR sort gate)": "low polyreactivity"}, {"sequence": "QVQLVESGGGLVQAGGSLRLSCAASGRIFYSYAMGWYRQAPGKERELVAAISSAGSTYYADSVKGRFTISRDNAKNTVYLQMNSLKPEDSAVYYCAAYRAGNSYYPRLNYWGQGTQVTVSS", "polyreactivity (PSR sort gate)": "high polyreactivity"}, {"sequence": "QVQLEESGGGLVQAGGSLRLSCAASGSTIPRNAMGWYRQAPGKERELVAAITSGGSTNYADSVKGRFTISRDNAKNTVYLQMNSLKPEDTSVYYCAADEQVNTQYVVWGDYWGQGTQVTVSS", "polyreactivity (PSR sort gate)": "low polyreactivity"}, {"sequence": "QVQLVESGGGLVQAGGTLRLSCAASGSTFIGNAMGWYIQAPGKERELVAAITRSGGSTFYADSVKGRFTISRDNAKNTVYLQMNSLKPEDTAVYYCAARNGAYPALKEGDYWGQGTQVTVSS", "polyreactivity (PSR sort gate)": "high polyreactivity"}, {"sequence": "QVQLVESGGGLVQAGGSLRLSCAASGSTFRWNAMGWYRQAPGKERELVAAISGNGGSTYYADSVKGRFTISRDNAKNTVYLHMNTLKPEYNAVYYCAARGYFCSSYKYDYRGQGTQVTVSS", "polyreactivity (PSR sort gate)": "high polyreactivity"}, {"sequence": "QVQLVESGGGLVQAGGSLRLSCAASGSIFSYNGMGWYRQAPGKERELVATISASSVTTYYADSVKGRFTFSRDNAMNTVYLQMNSLKPEDTAVYYCARDAYSVYYYVFLHWEYDYWGQGTQVTVSS", "polyreactivity (PSR sort gate)": "high polyreactivity"}, {"sequence": "QVQLVESGGGLVQAGGSLRLSCAASGSTFNHYTMGWYRQAPGKERELVAAISSRGGGTYYADSVKGRFTISRDNAKNTVYLQMNSLKPEDTAVYYCAALISSGIRHSRDYWGQGTQVTVSS", "polyreactivity (PSR sort gate)": "high polyreactivity"}, {"sequence": "QVQLVESGRGLVQAGGSLRLSCAASGSNFSVYAMGWYRKAPGKERELVAGITRGGSTYADSVKGRFTISRDNAKNTVYLQMNCLKPEDTAVYYFNAVWSNFRLGYDYWGQGTQVTVSS", "polyreactivity (PSR sort gate)": "high polyreactivity"}, {"sequence": "QVQLVESGGGLVQAGGSLRLSCAASGLIFRYYAMGWYRQAPGKERELVAAIRRGGSTYYADSVKGRFTISRDNAKNTVYLQMNSLKPEDTAVYYCAADSYYWRYEYDYWGQGTQVTVSS", "polyreactivity (PSR sort gate)": "high polyreactivity"}, {"sequence": "QVQLVESGGGLVQAGGSLRLSCAASGIIFSHNVMGWYRQAPGKERELVAAITYSGGSTYYADSVKGRFTISRDNAKNTVYLQMNSMKPEDTAVYYCNAVTYSSPYRFDYWGQGTQVTVSS", "polyreactivity (PSR sort gate)": "low polyreactivity"}, {"sequence": "QVQLVESGGGLVQAGGSLRLSCAASGSTFHYYAMGWYRQAPGKERELVAAINSGARTYYADSVKGRFTISRDNAKNTVYLQMNSLKPEDTAVYYCNKAFQWSGGQVSYDFWGQGTQVTVSS", "polyreactivity (PSR sort gate)": "low polyreactivity"}, {"sequence": "QVQLVDSGGGLVQAGGSLRLSCAASGSTFTRNVMGWYRQAPGKERELVASISRSGGRTYYADSVKGRFTISRDNAMNTVYLQMNSMKPDDTAVYYCAAKYFYYLDPYDYWGQGTHVTVSS", "polyreactivity (PSR sort gate)": "high polyreactivity"}, {"sequence": "QVQLVESGGGLVQAGGSLRLSCAASGSTFSYYAMGWYRQAPGKERELVAAITRSGGRTYYADSVKGRFTISRDNAKNTVYLQMNSLKPEDTAVYYCAALSVGTRRDYWGQGTQVTVSS", "polyreactivity (PSR sort gate)": "low polyreactivity"}, {"sequence": "QVQLQESGCGLVQAGGSLRLSCAASGNIFEADIMGWYHQAQGKERELVASITDGGSTNYADSVKGRFTINRDNAKNNVYLQMNSLKPEDTAVYSCAAIAYPDIPTYFDYDSDYFYWGQGTQVTVSS", "polyreactivity (PSR sort gate)": "high polyreactivity"}, {"sequence": "QVQLVESGGGLVQAGGSLRLSCAASGRTFPGNAMGWYRQAPGKERELVAAINSGGSTYYADSVKGRFTISRDNAKNTVYLQMNSLKPEDTAVYYSAAYFGHYWRYYYWGQGTQVNVSS", "polyreactivity (PSR sort gate)": "high polyreactivity"}, {"sequence": "QFQLVESGGGLVQAGGSLRLSCAASGSTFRTYAMGWYRQAPRKERELVADITWRGGSKYYADSVKGRFTISRDNAKNTVYSQMNSLKPEDPAVYYCATDRGPEVVLYDYWGQGTQVTVSS", "polyreactivity (PSR sort gate)": "low polyreactivity"}, {"sequence": "QVQLVESGGGLVQAGGSLRLSCAASGYTFGYYTMGWYRQAPRKERELVASIDSGGGTNYADSVKGRFTISRDNAKNTVYLQMNSLKPEDTAVYYCAAESPLYWVDDFESGWRYYYWGQGTQVTVSS", "polyreactivity (PSR sort gate)": "low polyreactivity"}, {"sequence": "QVQLVESGGGLVQAGGSLRLSCAASGRIFWYYGMGWYRQAPGKERELVAAITSGGRTYYADSVKGRFTISRDNAKNTVYLQMNSLKPEDTAVYYCAKGYVRYPSKGYTFDYWGQGTQVTVSS", "polyreactivity (PSR sort gate)": "high polyreactivity"}, {"sequence": "QVQLEESVGGLVQAGGSLRLSCAASGFTFHRYAMGWYTQAPGKERELVAGITRRSGSTFYADSVQGRFTISRDNAKNTVFLQMNSLKPEDTAVYYCAATVPGLHWIYDYWGQGTQVTVSS", "polyreactivity (PSR sort gate)": "high polyreactivity"}, {"sequence": "QLQLVESGGGLVQAGRRLRLTCAASGSIFQGNVMGWYRQAPGKERELVAAITWSGGRTYYADSVKGRFTISRDHAKNTVYLQMNSMNPDDTAVYYCNAVIGRELDYWGQGTKVTVSS", "polyreactivity (PSR sort gate)": "high polyreactivity"}, {"sequence": "QVHLVESGGGLVQAGGSLRLSCAASGITFNSYAMGWYRQAPGKERDLDASISWIGGSTYYADSVKGRFTISRDNAKNTVYLQINSLKPDDTAVYYCAVDKGTDYYYDVDYWGQGTQVTVSS", "polyreactivity (PSR sort gate)": "low polyreactivity"}, {"sequence": "QVQLVESGGGLVQAGGSRRLSCAASGSTFYGYAMGWYRQAPGKEREFVAAITTSGGSTYYADSVKGRFTISRDNAKNTVYLQMNSLKPEDTAVYYCARDLYTEYRWGRLTYDYWGQGTQVTVSS", "polyreactivity (PSR sort gate)": "low polyreactivity"}, {"sequence": "QVQLVESGGGLVQAGGSLRLSCAASGRTFCGNVMGWYRQAPGKERELVAAITNGASTNYADSVKGRFTISRDNAKNTVYLQMNSLKPEDTAVYYCAASANNWRRRGRSYEYWGQGTQVTVSS", "polyreactivity (PSR sort gate)": "low polyreactivity"}, {"sequence": "QVQLVESGGGLVQAGGSLRLSCAASGYVMGWYRQAPGKEREMVAAITRGTSTYYADSVKGRFTISRDNAKNTVYLQLNSLKPEDTAVYFCADRHNTGSSRHYGYWGQGTQVTVSS", "polyreactivity (PSR sort gate)": "low polyreactivity"}, {"sequence": "QVHLVESGGGLVQAGGSLRLSSAASGSIFGANAMGWYRQAPGKERELVAAITSGSGTNYADSVKGRFTISRDNSKNTVYLQMNSLKPEDTAVYSCAARHPYPIYDYWGQGTQVTVSS", "polyreactivity (PSR sort gate)": "low polyreactivity"}, {"sequence": "QVQLVESGGCLVQAGGSLRLSCSASGRIFNTYAMGWYRQAPGKERDLVARISSGGTTYYADSVKGRFTISRDNAKNTVYLQMNSLKPEDTAVYYCNVRAVTPTRSRPFRYDYWGQGTQVTVSS", "polyreactivity (PSR sort gate)": "high polyreactivity"}, {"sequence": "QVQLVESGGGLVQAGGSLRLSCAASGSTFYYYTMGWYRQAPGKERELVAAITYSGGSTRYADSVKGRFTISRDNAKNTVYLQMNSLKPEDTAVYYCAAGYYWSSFAFRDMDYWGQGTQVTVSS", "polyreactivity (PSR sort gate)": "high polyreactivity"}, {"sequence": "QVQLVESGGGLVQAGGSLRLSCASSGRIFHVYAMGWYRQAPGKERELVADITWSGGSTYYADSVKGRFTISRDNAKNTVYLQMNSLKPEDTAVYYCAASVLYGRHYSYGYWGQGTQVTVSS", "polyreactivity (PSR sort gate)": "high polyreactivity"}, {"sequence": "QVQLVESGGGLVQAGGSLRLSCAASGSIFRANTMGWYRQAPGKERELVAVISSGGRTYYADSVKGRFTISRDNAKNTVYLQMNSLKPEDTAVYYCAAKRGYGYGYWGQGTQVTVSS", "polyreactivity (PSR sort gate)": "high polyreactivity"}, {"sequence": "QVQLVESGGGLVLAGGSLRLSCAASGSTFRGNAMGWYRQAPGKERELVAAITRRGGSTYYADSVKGRFTISRDNAKNTVYLQMNSLKPEDTAVYYCAKVTTYVSAWQGNGYWGQGTQVTVSS", "polyreactivity (PSR sort gate)": "high polyreactivity"}, {"sequence": "QVQLVESGGGLVQAGGSLRLSCAASGRIFTAYTMGWYRQAPGKERELVAAISTSGTSTYYADSVKGRFTISRDNAKNTVYLQMHSLKPEDTAVYYCATDYYYYPHSQYDYWGQGTQVTVSS", "polyreactivity (PSR sort gate)": "low polyreactivity"}, {"sequence": "QVQLVESGGGLVQAGGSLRLSCAASGRTFLYNAMGWYRQAPGKERELVAAISWSGGSTYYADSVKGRFTISRDNAKNTVYLQMNSLKPEDTAVYYCAAYWVWPGRYWYDYWGQGTQVTVSS", "polyreactivity (PSR sort gate)": "high polyreactivity"}, {"sequence": "QVQLVESGGGLVQAGGSLRLSCAASGSTFCENDMGWYRQAPGKERELVAAISWTGGRTYYADSVKGRFTISRDNAKNTVYLQMNSLKAEDTAVYYFAAEWEYYGFDYWGQGTQVTVSS", "polyreactivity (PSR sort gate)": "low polyreactivity"}, {"sequence": "QVQLVESGGGLVQAGGSLRLSCAASGRIITTYAMGRYRQAPGKERELVAPITSDGRTYYADSVKVRFTISRDNATHSVYLQMYSMKPEDTAVYYCNAAGRYAFPFGYNYWGQGTQVTVSS", "polyreactivity (PSR sort gate)": "high polyreactivity"}, {"sequence": "QVQLVESGGGLVQAGGSLRLSCAASGRTSGNYAKGWNRQAPGKERELVAAIRYSGSSTFYAESVKGRFTISRDSAKNSVYLQMNSLKPEDTGVYYCARDIRRKGFRYDYWGQGTQVTVSS", "polyreactivity (PSR sort gate)": "high polyreactivity"}, {"sequence": "QVQLVETGGGLVKAGGSLRLSSAASGSIFVYYVMGWYRQAPGKERELVAAINSDGDGTYYADSVKGRFTISRDNAKNTVYLQMNSLKPEDTAVYYCAASAFTGVDTYGYGGQGTQVTVSS", "polyreactivity (PSR sort gate)": "low polyreactivity"}, {"sequence": "QVQLVESGGGLVQAGGSLRLSCAATGSTFLRNAIGWYRQAPGTERELVATITNGGSTYYADSVKGRFTISRDNAKNTVYLQMNSLKPEDTAVYYCATLSSYWSWLRYGYGYWGQGTQVTVSS", "polyreactivity (PSR sort gate)": "low polyreactivity"}, {"sequence": "QVQLVESGGGLVQAGGSLRLSCAASGSTFFPYAMGWYRQAPGKERELVAGISSDGGTYYADSVKGRFTISRDNAKNTVYLQMNSLKPEDTAVYYCAALQADRDRYPEFDLMDYWGQGTQVTVSS", "polyreactivity (PSR sort gate)": "low polyreactivity"}, {"sequence": "QVQLVESGGGLVQAGGSLRLSCAASGRIIRVNAMGWYRQAPGKERELVAAISGRGGSTYYADSVKGRFTISRDNAKITVYLQMNSLKPEDTAVYYCAKKSYSYGYNSYDYWGQGTQVTVSS", "polyreactivity (PSR sort gate)": "high polyreactivity"}, {"sequence": "QVQLVESGGGLVQAGGSLRLSCAASGFILDYYAMGWYRQAPGKERELVAANSYSGGSTYYADSVKGRFTISRDNAKNTVYLQMTSLKAEDTGVYYGNAGVLVLLYAYLPSELEYWGQGTQVTVSS", "polyreactivity (PSR sort gate)": "low polyreactivity"}]}]}
